Laboratory results published in the DeepSol protein solubility set.

Assay: soluble on expression in E. coli; label from the status in PepcDB or PDB records
With “MSDIERRHTIMAKGSVRKKGKKWYYRFYVEDASGNLVQKEYAGTESKSETEKLLRQAMDDYESKKFIAKSENITIGELLDIWAEEELKTGMLSNGTVQNYLGAITNIKKHPISERKLKNVTSEHLQAFFDLLSFGGTYPDGSERKGYSKDYIRSFSAVLQQSFRFAVSPKQYITFNPMQYIKLKYQTDEVDLFSDDDMDGDIQPIPREDYERLIEFLQNYNPPAILPIQIAYYAGLRIGEACGLAWQDVNLEEQCLTIRRSIRYDGSRHKNIIGPTKRKKVRIVDFGDTLAEILRNARKEQLKNRMQYGELYHKNYYREVKDKNRVYYEFYHLDGTENVPEDYKEISFVCLRPDGSLELPSTLGIVCRKIAQKLDGFEGFHFHQLRHTYTSNLLANGAAPKDVQELLGHSDVSTTMNVYAHSTRKAKRESARLLDKVAGND” the “soluble on expression in E. coli” value was “not soluble”.
For “MATESGSDSQLRRRRRRDPEGSEKTELSEREPALAVAGSEENDDENEERWVGPLPVEATLAKKRKVLEFERVYLDNLPSASMYERSYMHRDVITHVVCTKTDFIITASHDGHVKFWKKIEEGIEFVKHFRSHLGVIESIAVSSEGALFCSVGDDKAMKVFDVVNFDMINMLKLGYFPGQCEWIYCPGDAISSVAASEKSTGKIFIYDGRGDNQPLHIFDKLHVSPLTQIRLNPVYKAVVSSDKSGMIEYWTGPPHEYKFPKNVNWEYKTDTDLYEFAKCKAYPTSICFSPDGKKIATIGSDRKVRIFRFLTGKLMRVFDESLSMFTELQQMRQQLPDMEFGRRMAVERELEKVDAVRLVNIVFDETGHFVLYGTMLGIKVINVEPNRCVRILGKQENIRVMQLALFQGIAKKHRAAATIEMKASENPVLQNIQADPTIVCTSFKKNRFYMFTKRETEDTKTADSDRDVFNEKPSKEEVMAATQAEGPKRVSDSAIVHTSMGDIHIKLFPVECPKTVENFCVHSRNGYYNGHTFHRIIKGFMIQTGDPTGTGMGGESIWGGEFEDEFHSTLRHDRPYTLSMANAGSNTNGSQFFITVVPTPWLDNKHTVFGRVSKGMEVVQRIFNVKVNPQTDKPYEDVSIINITVK”, the “soluble on expression in E. coli” value was “soluble”.
With “MSLKFIGECRDRWPIAVLCRTLEVTRAAYYRFAGRGPTVTEIKQTQIIQAVKEIRLEKHHDAYGSPRMQRAIVKRGVVCCRNTVAKCMRHAGIQANRRTKFRISTTDSNHDQPIASNLLGQNFTTEAINRVWLTDITYIPTQEGSTYLCAFVDLHSRKIVSWKTSRNMDSELVVGAFDQALTFRKPNAGLIVHSDRGSQFASDHFRRRLAASGLVQSMSRRGNCYDNAPMESFFKSYKTEEAQQIYDTHEHATRGVSDYIERFYNPHRLHSSLGYLSPIDFEQAIKEPSLVSESEGHHHHHH” the “soluble on expression in E. coli” value was “not soluble”.
In the case of “PKLPTISQFNVTPFLAFISPDYKTHIDPNEVESVFEVPANHILNPNKLYSSKFELKRSSHRVFAIPYRQHFIWGMTAQIIESMQKHIISG”, the “soluble on expression in E. coli” value is reported as “not soluble”.
For “YIKMISNAKRSILIQTPYFIPDASLLDALRIACLSGIDVNIMIPNKPDHAFVYWATLSYIGDLLKAGATVYIYDNGFIHAKTIVVDDEIASVGTANIDVRSFRLNFEVNAFIYDITIAKKLVSTFKEDLLVSRKFTYEEYLQRPLWIR”, the “soluble on expression in E. coli” value was “not soluble”.
For “MKDVSTDAPVDSARIINGKFAFADTTKIENPVIKILSIHASKMGLEYRLPVVIENGTIKASIADVVCTEGTMLNERMQDFLLAIDAYSAACTDKPVEQIKSGFSELLKRYIEMNNDNVIGTYIQTAYQSSL”, the “soluble on expression in E. coli” value was “not soluble”.
In the case of “MSLIYTLTLNPSVDYKIVLKEFQEESLNYALNNNFFAGGKGINVSTVLKNLGKPSTALGFLGGFTGDYIRFSLDSRGIKNDFIKIKYDTRLNIKMIANGRETEINANSPDISENEFELLKNKLKNLANNSTLVMSGSVPAALGEDAYNEIANSISNDVKLIIDTSGKPLRKILRLNPFLIKPNIYELEDLFNAKFDSTKELIKIGKNLVESGVQNIIISMGSDGAIFIGGKNVAFRAFVPKINFVSTIGAGDSVIAGFVYAFDNGSTLEDSFKFGVAAGTATALKGNLCEFQDVKKMLCQIRVEDIYTSEGHHHHHH”, the “soluble on expression in E. coli” value is reported as “soluble”.
For “EVIDLASPIEAHGETLSQVTFRRPTAQEARAIKALPYKIDKNEDVSLDLDVAAKYIAVCAGIPPSSVNQMDLCDINTLSWKVASFFMAAAS”, the “soluble on expression in E. coli” value was “not soluble”.
In the case of “MGSDKIHHHHHHMKTYLVGGSVRDEILGLPVTDHDYVVVGVSPEEMVHLGFRPVGKDFPVFLHPQSQEQYALARTERKVSRGYKGFEVYASPEVTLQEDLARRDLTINAIAKDEYGNIIDPFGGIADLEAGVLRHIGPAFTEDPVRVLRTARFAARFGFHIAPETLALMNEMVHNGEVDALVSERVWQEIARGLMERHPSRMFYALRDCGALTRIMPEVDALFGVPQPPQHHPEIDTGVHVMMVIDYAASRNYSLQVRFAALTHDLGKGTTPPEEWPRHIGHEARSVRLVQGLCERINPPNEMRNLALLVARYHGDVHRAAELRPVTIANLLQGVDAYRKPERFEEFLQACACDFHGRPGYATRPYPQADRLREAFQAARSVDAGAIAKEMARNVSDPSRLPVAINTRVSETRIAEIRNRLGSLA”, the “soluble on expression in E. coli” value is reported as “not soluble”.
With “MGSDKIHHHHHHMSNLSLDFSDNTFQPLAARMRPENLAQYIGQQHLLAAGKPLPRAIEAGHLHSMILWGPPGTGKTTLAEVIARYASADVERISAVTSGVKEIREAIERARQNRNAGRRTILFVDEVHRFNKSQQDAFLPHIEDGTITFIGATTENPSFELNSALLSRARVYLLKSLTTDDIEQVLDQAMQDKTRGYGDQDIVLPDETRRAIAELVNGDARRALNTLEMMADMAEADDSGKRVLLPALLTEIAGERSARFDNKGDRFYDLISALHKSVRGSAPDAALYWYARIITAGGDPLYVARRCLAIASEDVGNADPRAMQVAIAAWDCFTRVGPAEGERAIAQAIVYLACAPKSNAVYTAFKAALADARERPDYDVPVHLRNAPTKLMKEMGYGQEYRYAHDEPNAYAAGEVYFPPEIAQTRYYHPTNRGLEGKIGEKLAWLAEQDQNSPTKRYR” the “soluble on expression in E. coli” value was “not soluble”.
With “MSLKKRYDLSYNFNVHEVPRAALEERFDPKSPTKRSIAIVFEEIKNWISDIPYVISLSYTDAQDKSKKIMNVTTDSLTKVLQADLPGSYNLEYIESKFCPGEIVGKSNVLVTMPVAPTMEVKSFPILDQCVGQVGLNFELSFTGAPPYYYNTKIYKLENGERKLYDAKRYTSEGTRNRFSYSPPKEGNYEIVFDTVSNKLFTEPIKLEPVKEYTFKTSMRVKPSASLKLHHDLKLCLGDHSSVPVALKGQGPFTLTYDIIETFSSKRKTFEIKEIKTNEYVIKTPVFTTGGDYILSLVSIKDSTGCVVGLSQPDAKIQVRRDEGHHHHHH” the “soluble on expression in E. coli” value was “soluble”.
With “MGAAMGPALAVDAAQEAPTADNSPAVEAPQTPEEGEQSAQTSQDNPRYESQIVRAGHSAEAEQVGDVSEDTIFEYSEFDIPEGWFVSVDEDSGKVTVSTPPDAQDGDNYTVKVKAVDLDGNVTWSEVTFTVGDPETDNPEIEPLDADAPEVELPAAE” the “soluble on expression in E. coli” value was “not soluble”.
For “MSLGFSRQAFYKRHLNDLARHEEDVLCSSIIQYCWHLRQAEHLPQAGFRELMVLCQQYFGPKFTLGRDRFCALLRRHGMMLRKRSVRPRTTNSRHRLYKYEDLLNTEPKFVPQRPGELLVADITYVAYQDGFAYLSLLTDAYSRCIVGYCLHPTLEVEGCLNALHQAFAFYDQHQIDTTNMIHHSDRGIQYAGKSYTDLLHGRGWRISMTQTGDPLHNALAERMNNTLKNSWHISSSKQSFDQALLSVDRAVRMYNEARPHQALRAKTPMQVITPESEGHHHHHH”, the “soluble on expression in E. coli” value was “soluble”.
For “MHSLGWDIWNAVQPKEFYKGFLRRSIRPDGRKLSEYRDITLRKGPLVTTVDGSANASIGRTVALIGIQPKVIEWKETKKGSARSIVGQHCSLQVEFPSVCHRDIRSGRTLEEALLVKESLENVLEQILERDSFCIVPDKFYWHLQITAYCLSLDGNVIETFLLALYGALLDLQLPVVRASTSGDLLTLDPNQPKVTLPMKKLEDWPWVVPIGLFWNGPSEYYAVLDLSEEEENNMSSIVWIWNSQRGDKLAISKQKVGPLSVNILQEVLQLVKAHIDEVILRLQHGK”, the “soluble on expression in E. coli” value was “not soluble”.
With “DNSSFDSLSPEPKSRFAMLDDVKILANGLLQLGHGLKDFVHKTKGQINDIFQKLNIFDQSFYDLSLQTSEIKEEEKELRRTTYKLQVKNEEVKNMSLELNSKLESLLEEKILLQQKVKYLEEQLTNLIQNQPETPEHPEVTSLKTFVEKQDNSIKDLLQTVEDQYKQLNQQHSQIKEIENQLRRTSIQEPTEISLSSKPRAPRTTPFLQLNEIRNVKHDGIPAECTTIYNRGEHTSGMYAIRPSNSQVFHVYCDVISGSPWTLIQHRIDGSQNFNETWENYKYGFGRLDGEFWLGLEKIYSIVKQSNYVLRIELEDWKDNKHYIEYSFYLGNHETNYTLHLVAITGNVPNAIPENKDLVFSTWDHKAKGHFNCPEGYSGGWWWHDECGENNLNGKYNKPRAKSKPERRRGLSWKSQNGRLYSIKSTKMLIHPTDSESFE” the “soluble on expression in E. coli” value was “not soluble”.
With “MKKLLLSILFVGGGLISLSNNFTGPRYRVDISTGFIDDRRFALTSGYKFFSGSVSVLPEWELKFNKKFDISFGPKVSLNFENFIGSMDATTINPSIILGGEIDFNYKVIEDVKIYAGMEVGTGIGFQAFVSSSHNHFQGPELKTESKISLGVKVKDKFNLAFYTGDIKGVIGVEAGYTF” the “soluble on expression in E. coli” value was “not soluble”.
With “MSLESGFLEDAQANLTLRNFYFNRNFTNPTKAQGKAEEWTQSFILDAKSGFTQGTVGFGMDVLGLYSLKLDGGKGTGGTQLLPLDHDGRPADNFGRLGVAFKARLSQTEVKVGEWMPVLPILRSDDGRSLPQTFRGGQITSKEIAGLTLYGGQFRANSPRDDSSMSDMSMFGKAAFTSDRFNFQGAEYAFNDKRTQIALWNAQLKDIYSQQFINLIHSQPLGDWTLGANLGFFYGKEDGSARAGDMENRTWSGLFSAKYGGNTFYVGLQKLTGDSAWMRVNGTSGGTLANDSYNASYDNAKEKSWQVRHDYNFAALGVPGLTLMNRYISGSNVHTATVSDGKEWGRESEVAYTVQSGTLKNLNLKWRNSTMRRDFSNNEFDENRLIISYPLSLLEGHHHHHH” the “soluble on expression in E. coli” value was “soluble”.
In the case of “MFDTKIAVILRDDLAVWQKLNVTAFLMSGIVAQTGEIIGEPYRDGAGNVYNPLSIQPIVVMATDQEALRKIHQRSLERDITTSLYIEEMFATGHDAANRQVFSHFSPDTAKVVGMALRADRKIVDKITKGAKLHA”, the “soluble on expression in E. coli” value is reported as “soluble”.
For “MGSDKIHHHHHHMGDKVLKIGSVHQCNCCMGSKTLHPLVSVIDLSKADLSSHTDFKFGFYTILLSECKCEAYRYGHQYYDFSDGTLLCLTPGESISMKDSDNTRPSKGWILAFHPDLICGTALGANIRDYTFFSYRPEEALHVSLREKQVILELLDKINEELQRCIDCYSQKIISKYIELLLDYCERFYERQFITRNEANKKIIERFDRLLDDHFNTIQSQSSDLPTIEECVRVLRLSPAYFNDLLEYETGKSYKEYLQFKRFEIAKEWLINTDKTLSQIAQELGFRNPQYFSRLFKKITGCLPNDFKMPN”, the “soluble on expression in E. coli” value was “not soluble”.
With “MKLRASVLIGATILCLILSACSNYAKKVVKQKNHVYTPVYNELIEKYSEIPLNDKLKDTPFMVQVKLPNYKDYLLDNKQVVLTFKLVHHSKKITLIGDANKILQYKNYFQANGARSDIDFYLQPTLNQKGVVMIASNYNDNPNSKEKPQTFDVLQGSQPMLGANTKNLHGYDVSGANNKQVINEVAREKAQLEKINQYYKTLLQDKEQEYTTRKNNQREILETLSNRAGYQMRQNVISSEIFKNGNLNMQAKEEEVREKLQEERENEYLRNQIRSLLSGK” the “soluble on expression in E. coli” value was “not soluble”.
With “MGSDKIHHHHHHMRIILYLGKGGVGKTTVSASTATAIARSGKRVLIMSTDVAHSLADAFGVELSSTPVEVEKNLFAMEVNILAEIRENWTELYSYFSSILMHDGTNEIVAEELAIVPGMEEMISLRYIWKAAKSGKYDAVVVDAAPTGETMRLLGMPESYGWYSEKIGGWHSKAIGFAAPLLSRFMPKKNIFKLMPEVNEHMKELHGMLQDKSITTFRVVLNPENMVIKEALRVQTYLNLFGYKLDAAVVNKVLPSNSSDPYLQALIDQQAKYLRVIDNCFYPVPIFRAMQSSKEVISTDRLYDLSQELFSGRNPMEVLYSNDKTQTLEKINGKYVLSLYLPNVEVDKLAVNIKGDELLVDINNFRKSIVLPNVLVGRKTEGADFEQGTLNITFAN” the “soluble on expression in E. coli” value was “not soluble”.
